From PMC5887372 (Nucleic Acids Research, 2018) come the findings set out here.

The labels stand for the following.
B1: DNMT1 RFTS domain (aa: 351–600) (domain or fragment)
chain: PKCIQCGQYLDDPDLKYGQHPPDAVDEPQMLTNEKLSIFDANESGFESYEALPQHKLTCFSVYCKHGHLCPIDTGLIEKNIELFFSGSAKPIYDDDPSLEGGVNGKNLGPINEWWITGFDGGEKALIGFSTSFAEYILMDPSPEYAPIFGLMQEKIYISKIVVEFLQSNSDSTYEDLINKIETTVPPSGLNLNRFTEDSLLRHAQFVVEQVESYDEAGDSDEQPIFLTPCMRDLIKLAGVTLGQRRAQAR
B2: DNMT1 RFTS domain E397A (domain or fragment)
chain: PKCIQCGQYLDDPDLKYGQHPPDAVDEPQMLTNEKLSIFDANESGFASYEALPQHKLTCFSVYCKHGHLCPIDTGLIEKNIELFFSGSAKPIYDDDPSLEGGVNGKNLGPINEWWITGFDGGEKALIGFSTSFAEYILMDPSPEYAPIFGLMQEKIYISKIVVEFLQSNSDSTYEDLINKIETTVPPSGLNLNRFTEDSLLRHAQFVVEQVESYDEAGDSDEQPIFLTPCMRDLIKLAGVTLGQRRAQAR
B4: DNMT1 RFTS domain E384A (domain or fragment)
chain: PKCIQCGQYLDDPDLKYGQHPPDAVDEPQMLTNAKLSIFDANESGFESYEALPQHKLTCFSVYCKHGHLCPIDTGLIEKNIELFFSGSAKPIYDDDPSLEGGVNGKNLGPINEWWITGFDGGEKALIGFSTSFAEYILMDPSPEYAPIFGLMQEKIYISKIVVEFLQSNSDSTYEDLINKIETTVPPSGLNLNRFTEDSLLRHAQFVVEQVESYDEAGDSDEQPIFLTPCMRDLIKLAGVTLGQRRAQAR

Experiment [1] concerns the target T1, ubiquitin (UniProt P0CG48 1-76). In words: ITC. (Isothermal titration calorimetry measures the heat released or taken up as one component is titrated into another.)
Experiment [2] has as its target B1. Briefly: ITC.
For experiment [3], the target named is B2. Briefly: ITC.
For experiment [4], the target named is DNMT1 RFTS domain Y399G (human, UniProt P26358 351-600, Y399G). Briefly: ITC.
For experiment [5], the target named is DNMT1 RFTS domain I442G (human, UniProt P26358 351-600, I442G). Briefly: ITC.
For experiment [6], the target named is DNMT1 RFTS domain E384A/E397A (human, UniProt P26358 351-600, E384A | E397A). Briefly: ITC.
In experiment [7] the target is B4. Briefly: ITC.
Experiment [8] has as its target T1, ubiquitin. In words: NMR titration.

As for B1, the Kd – broadly, the free concentration of one partner at which half of the binding sites on the other are occupied at equilibrium, for simple one-to-one binding – in experiment [1] amounted to 26 µM.

Take B2: the “fold reduction of binding against wild-type RFTS” value in experiment [1] is about 2 fold.

B3: UHRF1 UBL domain (aa: 1–76) (domain or fragment)
chain: MWIQVRTMDGRQTHTVDSLSRLTKVEELRRKIQELFHVEPGLQRLFYRGKQMEDGHTLFDYEVRLNDTIQLLVRQS
For B3, in experiment [2], binding was characterised by a dissociation constant (Kd) of 41.3 µM. For the same molecule, the binding result in experiment [3], in experiment [4], in experiment [5], in experiment [6] and in experiment [7] was “binds” each time.

In the case of B4, the “fold reduction of binding against wild-type RFTS” value in experiment [1] is about 2 fold.

B5: DNMT1_351 (aa: 351–1616) (domain or fragment)
chain: PKCIQCGQYLDDPDLKYGQHPPDAVDEPQMLTNEKLSIFDANESGFESYEALPQHKLTCFSVYCKHGHLCPIDTGLIEKNIELFFSGSAKPIYDDDPSLEGGVNGKNLGPINEWWITGFDGGEKALIGFSTSFAEYILMDPSPEYAPIFGLMQEKIYISKIVVEFLQSNSDSTYEDLINKIETTVPPSGLNLNRFTEDSLLRHAQFVVEQVESYDEAGDSDEQPIFLTPCMRDLIKLAGVTLGQRRAQARRQTIRHSTREKDRGPTKATTTKLVYQIFDTFFAEQIEKDDREDKENAFKRRRCGVCEVCQQPECGKCKACKDMVKFGGSGRSKQACQERRCPNMAMKEADDDEEVDDNIPEMPSPKKMHQGKKKKQNKNRISWVGEAVKTDGKKSYYKKVCIDAETLEVGDCVSVIPDDSSKPLYLARVTALWEDSSNGQMFHAHWFCAGTDTVLGATSDPLELFLVDECEDMQLSYIHSKVKVIYKAPSENWAMEGGMDPESLLEGDDGKTYFYQLWYDQDYARFESPPKTQPTEDNKFKFCVSCARLAEMRQKEIPRVLEQLEDLDSRVLYYSATKNGILYRVGDGVYLPPEAFTFNIKLSSPVKRPRKEPVDEDLYPEHYRKYSDYIKGSNLDAPEPYRIGRIKEIFCPKKSNGRPNETDIKIRVNKFYRPENTHKSTPASYHADINLLYWSDEEAVVDFKAVQGRCTVEYGEDLPECVQVYSMGGPNRFYFLEAYNAKSKSFEDPPNHARSPGNKGKGKGKGKGKPKSQACEPSEPEIEIKLPKLRTLDVFSGCGGLSEGFHQAGISDTLWAIEMWDPAAQAFRLNNPGSTVFTEDCNILLKLVMAGETTNSRGQRLPQKGDVEMLCGGPPCQGFSGMNRFNSRTYSKFKNSLVVSFLSYCDYYRPRFFLLENVRNFVSFKRSMVLKLTLRCLVRMGYQCTFGVLQAGQYGVAQTRRRAIILAAAPGEKLPLFPEPLHVFAPRACQLSVVVDDKKFVSNITRLSSGPFRTITVRDTMSDLPEVRNGASALEISYNGEPQSWFQRQLRGAQYQPILRDHICKDMSALVAARMRHIPLAPGSDWRDLPNIEVRLSDGTMARKLRYTHHDRKNGRSSSGALRGVCSCVEAGKACDPAARQFNTLIPWCLPHTGNRHNHWAGLYGRLEWDGFFSTTVTNPEPMGKQGRVLHPEQHRVVSVRECARSQGFPDTYRLFGNILDKHRQVGNAVPPPLAKAIGLEIKLCMLAKARESASAKIKEEEAAKD
Turning to B5, the binding result in experiment [8] was “binds”.
